What was measured:
[1] = molecular target: T1, Recombinant human ADAM8 (rHuADAM8) ectodomain protein (aa 17-497), ACRO Biosystems AD8-H5223 (human, UniProt P78325 17-497); experiment: ELISA, coated rHuADAM8
T1 construct: Bought protein made in HEK293 cells; The protein clips off its own prodomain (aa 17-191); also called rhADAM8; immunogen
T1 sequence: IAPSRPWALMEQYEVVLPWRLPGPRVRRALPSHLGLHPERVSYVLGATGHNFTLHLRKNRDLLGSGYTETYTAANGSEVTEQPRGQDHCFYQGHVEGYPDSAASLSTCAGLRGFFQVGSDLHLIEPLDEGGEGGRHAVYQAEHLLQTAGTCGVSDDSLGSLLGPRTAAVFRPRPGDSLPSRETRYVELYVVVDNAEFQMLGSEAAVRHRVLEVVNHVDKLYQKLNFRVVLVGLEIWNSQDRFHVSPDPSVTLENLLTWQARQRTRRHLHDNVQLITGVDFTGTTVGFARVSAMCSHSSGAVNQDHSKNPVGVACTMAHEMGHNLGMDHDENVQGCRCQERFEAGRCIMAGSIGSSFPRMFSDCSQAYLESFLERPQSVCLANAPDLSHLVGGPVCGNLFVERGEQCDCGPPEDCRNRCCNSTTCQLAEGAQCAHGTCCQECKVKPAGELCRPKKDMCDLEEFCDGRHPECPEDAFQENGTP
Experimental: ELISAs were performed to assess the anti-ADAM8 antibodies for binding to rHuADAM8 during preparation and screening stages, using mouse sera, hybridoma supernatants and purified mouse and chimeric ADPs. ELISA plates (96-well) were coated with 1 μg/ml rHuADAM8 (Acro Biosystems, AD8-H5223) overnight at 4° C. Plates were washed three times with phosphate buffered saline (PBS) containing 0.05% Tween 20 (PBST) and blocked with 1% bovine serum albumin (BSA) in PBST at 37° C. for 1 hr. Plates were then exposed to sera, supernatants or purified antibodies for 1 hour at 37° C.
For analysis of antibodies in the serum of mice, pre-bleed and test bleed samples in 6 dilutions ranging from 1:100 to 1:10,000,000 were tested. For analysis of antibodies in hybridoma clone and subclone supernatants, plates were subjected to 50 μl of supernatants. A test bleed sample (1:1000) and hybridoma culture medium were used as positive and negative controls, respectively. For purified antibody characterization, coated plates were incubated with eight increasing concentrations of each specific ADP ranging from 10⁻⁵ to 10³ nM. Normal mouse IgG (1 μg/ml) was used as a negative control to indicate the level of general non-specific binding and a test bleed sample (1:100) was used as a positive control. Samples were washed three times with PBST and incubated for 30 minutes at 37° C. with a secondary goat anti-mouse IgG (Fc specific)-HRP antibody (Sigma A0168, 1:5000). After washing three times with PBST, the signal was developed with addition of 100 μl of the horseradish peroxidase substrate 3,3′,5,5′-Tetramethylbenzidine (TMB) for 10 minutes at room temperature, followed by quenching with 50 μl 1N HCl. Signal was read in a 96-well spectrophotometer at an optical density (OD) of 450 nm.

[2] = molecular target: T2, Full-length human ADAM8 on cells (HEK293-ADAM8 stable or transfected cells); also endogenous ADAM8 of breast … (human, UniProt P78325 17-824); experiment: cell-based or functional assay
T2 sequence: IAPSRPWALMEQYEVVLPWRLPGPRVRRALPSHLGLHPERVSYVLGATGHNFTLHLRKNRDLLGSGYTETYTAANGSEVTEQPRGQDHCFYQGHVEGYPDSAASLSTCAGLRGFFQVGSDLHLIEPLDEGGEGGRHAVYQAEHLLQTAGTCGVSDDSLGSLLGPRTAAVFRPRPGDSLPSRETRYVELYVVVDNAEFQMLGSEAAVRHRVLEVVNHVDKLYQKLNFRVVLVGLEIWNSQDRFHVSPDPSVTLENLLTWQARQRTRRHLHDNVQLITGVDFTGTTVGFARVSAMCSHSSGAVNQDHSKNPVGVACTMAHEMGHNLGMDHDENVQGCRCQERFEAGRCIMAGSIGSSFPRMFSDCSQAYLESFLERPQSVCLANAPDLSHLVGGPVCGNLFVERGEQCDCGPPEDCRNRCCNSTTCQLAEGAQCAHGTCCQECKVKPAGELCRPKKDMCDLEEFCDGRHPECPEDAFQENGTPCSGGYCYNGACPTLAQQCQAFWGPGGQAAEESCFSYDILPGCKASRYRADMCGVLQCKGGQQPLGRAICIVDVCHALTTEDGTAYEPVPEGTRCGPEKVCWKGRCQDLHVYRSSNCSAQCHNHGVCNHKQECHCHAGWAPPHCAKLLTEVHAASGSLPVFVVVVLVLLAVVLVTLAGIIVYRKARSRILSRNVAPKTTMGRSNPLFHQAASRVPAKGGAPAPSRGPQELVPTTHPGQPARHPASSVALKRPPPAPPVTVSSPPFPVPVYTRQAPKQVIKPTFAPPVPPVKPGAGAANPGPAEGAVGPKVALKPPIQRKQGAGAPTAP

[3] = molecular target: T1, Recombinant human ADAM8 (rHuADAM8) …; experiment: ELISA, coated recombinant ADAM8
[4] = molecular target: T3, Recombinant human ADAM15 (Sino Biological, 10517-H08H) (human, UniProt Q13444 18-696); experiment: ELISA, coated recombinant ADAM15
T3 sequence (looked up): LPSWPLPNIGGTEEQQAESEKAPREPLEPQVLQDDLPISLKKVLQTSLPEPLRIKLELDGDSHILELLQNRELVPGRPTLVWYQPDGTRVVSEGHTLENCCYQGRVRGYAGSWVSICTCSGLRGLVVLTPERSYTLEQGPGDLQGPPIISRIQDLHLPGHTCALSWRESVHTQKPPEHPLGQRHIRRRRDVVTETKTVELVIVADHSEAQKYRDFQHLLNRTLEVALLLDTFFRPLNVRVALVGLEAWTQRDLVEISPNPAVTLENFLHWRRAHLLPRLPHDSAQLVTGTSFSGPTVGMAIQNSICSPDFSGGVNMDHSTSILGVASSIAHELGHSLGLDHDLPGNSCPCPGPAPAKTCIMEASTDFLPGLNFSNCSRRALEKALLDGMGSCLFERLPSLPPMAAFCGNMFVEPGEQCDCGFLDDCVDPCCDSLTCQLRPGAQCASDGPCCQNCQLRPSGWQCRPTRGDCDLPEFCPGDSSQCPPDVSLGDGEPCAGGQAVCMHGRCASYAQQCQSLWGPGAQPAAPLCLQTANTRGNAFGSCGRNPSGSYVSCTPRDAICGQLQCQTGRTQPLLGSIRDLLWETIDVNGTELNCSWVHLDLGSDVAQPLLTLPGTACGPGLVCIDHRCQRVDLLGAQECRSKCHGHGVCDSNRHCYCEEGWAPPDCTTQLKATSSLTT

B1: ADP3 (antibody, IgG1, V domains shown)
VH: EVKLEESGGGLVQPGGSMKLSCAASGFTFSDAWMDWVRQSPEKGLEWVAEIRGKVNNLATYYVESVKGRFTISRDDSKSSVYLQMNSLRAEDTGIYYCLGRYDATYAMDYWGQGTSVTVSS
VL: DVVMTQTPLSLPVSLGDQASISCRSSQSLVHSDGNTYLHWYLQKPGQSPKLLIYKLSNRFSGVPDRFSGSGSGTDFTLKISRVEAEDLGVYFCSQSTHVPWTFGGGTKLEIK
For B1, the EC50 [1] was 0.049 nM, the “% inhibition of CD23 cleavage (MP activity), HEK293 cells co-expressing CD23 and ADAM8, antibody 20 µg/ml” value (“% inhibition of CD23 cleavage” below) [2] was 79.9 % inhibition and the “% inhibition of transendothelial migration of MDA-MB-231 cells through HUVEC, antibody 20 µg/ml” value [2] was 44.5 % inhibition. For the same binder, the “OD 450nm” value [3] was 2.31 OD450nm, the “OD 450nm” value [4] was 0.17 OD450nm and the binding result [4] was “no binding (tested: 1 µg/ml)”.

B2: ADP2 (antibody, V domains shown)
VH: EVKLVESGGGLVQPGGSLSLSCAASGFSFPDYYMSWVRQPPGKALEWLGFIRDSANGYTTEYIASVKGRFTFSRDNSQSILYLQMNALRAEDSATYYCARYSRYYGMDYWGQGTSVTVSS
VL: SIVMTQTPKILLVSAGDRVTITCKASQTVNYDVAWYQQKPGQSPKPVIYFASNRYTGVPDRFTGSGFGTDFTFTISTVQAEDLAVYFCQQDYSAPWTFGGGTKLEIK
notes: also called mADP2; mouse ADP2
In the case of B2, the EC50 [1] is reported as 0.029 nM, the “% inhibition of CD23 cleavage” value [2] is reported as 62.6 % inhibition and the “% inhibition of transendothelial migration of MDA-MB-231 cells through HUVEC, antibody 20 µg/ml” value [2] is reported as 37.6 % inhibition. For the same binder, the “OD 450nm” value [3] was 2.76 OD450nm and the “OD 450nm” value [4] was 0.16 OD450nm.

B3: ADP13 (antibody, IgG1, V domains shown)
VH: EVQLQQSGPEMVKPGTSVKISCKASGYTFTDYYINWVKQSHGKSLEWIGDISPNIGGATYNPKFKGKAILTVDKSARTAYMELRSLTSEDSAVYCCTRGGSSYPYFYAMDYWGQGTSVTVSS
VL: DIVMSQSPSSLAVSVGEKVTMSCKSSQSLLYSSNQKKYLAWYQQKPGQSPKLLIYWASTRESGVPDRFTGSGSGTDFTLTISSVKAEDLAVYYCQQFYSYPYTFGGGTKLEINR
notes: also called mADP13; mouse ADP13
For B3, the EC50 [1] was 0.054 nM, the “% inhibition of CD23 cleavage” value [2] was 79.1 % inhibition and the “% inhibition of transendothelial migration of MDA-MB-231 cells through HUVEC, antibody 20 µg/ml” value [2] was 54.5 % inhibition. For the same binder, the “OD 450nm” value [3] was 2.64 OD450nm, the “OD 450nm” value [4] was 0.09 OD450nm and the binding result [4] was “no binding (tested: 1 µg/ml)”.

Reference: patent publication US20220227882A1 (TRUSTEES OF TUFTS COLLEGE, published 2022)
